Laboratory results published in FireProtDB (doi:10.1016/j.jmb.2004.06.010).
“And” between values parts separate entries of the source, which are not always exact repeats. Identical values can stand only once.

B1: Alpha-lactalbumin, P00712 (parent)
chain: MMSFVSLLLVGILFHATQAEQLTKCEVFQKLKDLKDYGGVSLPEWVCTAFHTSGYDTQAIVQNNDSTEYGLFQINNKIWCKDDQNPHSRNICNISCDKFLDDDLTDDIVCAKKILDKVGINYWLAHKALCSEKLDQWLCEKL

Variants of: B1
Settings: Capra hircus, pH 7, 25 °C, GdnHCl, CD, sodium cacodylate 50 mM, NaCl 50 mM, structure 1HFY, whole UniProt chain shown

| Variant | denaturant m value [kcal/mol/M] | denaturant midpoint (higher = more stable) [M] | unfolding free energy [kcal/mol] | denaturant m value (transition: 3) | denaturant midpoint (higher = more stable) (transition: 3) | unfolding free energy (transition: 3) |
| --- | --- | --- | --- | --- | --- | --- |
| MMSFVSLLLVGILFHATQAEQLTKCEVFQKLKDLKDYGGVSLPEWVCTAFHTSGYDTQAIVQNNDSTEYGLFQINNKIWCKDDQNPHSRNICNISCDKFLDDDLTDDIVCAAKILDKVGINYWLAHKALCSEKLDQWLCEKL [K112A] | 2.12 | 1.83 | 3.88 | 1.51 kcal/mol/M and 0.61 kcal/mol/M | 2.07 M and 1.24 M |  |
| MMSFVSLLLVGILFHATQAEQLTKCEVFQKAKDLKDYGGVSLPEWVCTAFHTSGYDTQAIVQNNDSTEYGLFQINNKIWCKDDQNPHSRNICNISCDKFLDDDLTDDIVCAKKILDKVGINYWLAHKALCSEKLDQWLCEKL [L31A] | 2.6 | 1.21 | 3.17 |  | 1.37 M and 0.62 M |  |
| MMSFVSLLLVGILFHATQAEQLTKCEVFQKLKDLKDYGGVSLPEWVCTAFHTSGYDTQAIVQNNDSTEYGLFQINNKIWCKDDQNPHSRNICNISCDKFLDDDLTDDVVCAKKILDKVGINYWLAHKALCSEKLDQWLCEKL [I108V] | 1.95 | 2.33 | 4.54 | 1.3 kcal/mol/M and 0.65 kcal/mol/M | 2.95 M and 1.09 M |  |
| MMSFVSLLLVGILFHATQAEQLTKCEVFQKLKDLKDYGGVSLPEWVCTAFHTSGYDTQAIVQNNDSTEYGLFQINNKIWCKDDQNPHSRNICNISCDKFLDDDLTDDIVCAKKVLDKVGINYWLAHKALCSEKLDQWLCEKL [I114V] | 1.92 | 1.92 | 3.69 | 1.21 kcal/mol/M and 0.71 kcal/mol/M | 2.46 M and 1 M |  |
| MMSFVSLLLVGILFHATQAEQLTKCEVFQKLKDLKDYGGVSLPEWVCTAFHTSGYDTQAIVQNNDSTEYGLFQINNKIWCKDDQNPHSRNICNISCDKFLDDDLTDDIACAKKILDKVGINYWLAHKALCSEKLDQWLCEKL [V109A] | 2.22 | 2.99 | 6.63 | 1.64 kcal/mol/M and 0.58 kcal/mol/M | 3.5 M and 1.54 M |  |
| MMSFVSLLLVGILFHATQAEQLTKCEVFQKLKDLKDYGGVSLPEWVCTAFHTSGYDTQAIVQNNDSTEYGLFQINNKIWCKDDQNPHSRNICNISCDKFLDDDLTNDIVCAKKILDKVGINYWLAHKALCSEKLDQWLCEKL [D106N] | 2.18 | 2.07 | 4.51 | 0.72 kcal/mol/M | 1.49 M | 1.08 kcal/mol |
| MMSFVSLLLVGILFHATQAEQLTKCEVFQKLKDLKDYGGVSLPEWVCTAFHTSGYDTQAIVQNNDSTEYGAFQINNKIWCKDDQNPHSRNICNISCDKFLDDDLTDDIVCAKKILDKVGINYWLAHKALCSEKLDQWLCEKL [L71A] | 2.03 | 1.15 | 2.34 | 1.52 kcal/mol/M and 0.51 kcal/mol/M | 1.16 M and 1.13 M |  |
| MMSFVSLLLVGILFHATQAEQLTKCEVFQKLKDLKDYGGVSLPEWVCTAFHTSGYDTQAIVQNNDSTEYGLFQINNKIACKDDQNPHSRNICNISCDKFLDDDLTDDIVCAKKILDKVGINYWLAHKALCSEKLDQWLCEKL [W79A] | 2.4 | 1.59 | 3.82 | 1.79 kcal/mol/M and 0.61 kcal/mol/M | 1.58 M and 1.65 M | 2.82 kcal/mol and 1 kcal/mol |
| MMSFVSLLLVGILFHATQAEQLTKCEVFQKLKDLKDYGGVSLPEWACTAFHTSGYDTQAIVQNNDSTEYGLFQINNKIWCKDDQNPHSRNICNISCDKFLDDDLTDDIVCAKKILDKVGINYWLAHKALCSEKLDQWLCEKL [V46A] | 2.7 | 1.81 | 4.88 | 1.9 kcal/mol/M and 0.8 kcal/mol/M | 2.17 M and 0.94 M |  |
| MMSFVSLLLVGILFHATQAEQLTKCEAFQKLKDLKDYGGVSLPEWVCTAFHTSGYDTQAIVQNNDSTEYGLFQINNKIWCKDDQNPHSRNICNISCDKFLDDDLTDDIVCAKKILDKVGINYWLAHKALCSEKLDQWLCEKL [V27A] | 2.1 | 2.26 | 4.74 | 1.48 kcal/mol/M | 2.76 M | 4.1 kcal/mol |
